T1: mouse VEGF (mouse, UniProt Q00731-2 27-190)
T1 construct: Bought recombinant protein; also called mVEGF-A; mouse VEGF-A
T1 sequence (looked up): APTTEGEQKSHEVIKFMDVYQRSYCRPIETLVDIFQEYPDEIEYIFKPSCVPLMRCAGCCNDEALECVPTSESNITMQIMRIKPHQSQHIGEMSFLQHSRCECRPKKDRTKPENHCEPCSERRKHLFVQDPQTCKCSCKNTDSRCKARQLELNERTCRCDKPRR


How the values were obtained:
human VEGF [1] = biological target: T2, human VEGF (human, UniProt P15692-4 27-191); assay: ELISA and BIAcore
T2 construct: Bought recombinant protein; also called hVEGF; human VEGF-A

mouse VEGF = biological target: T1, mouse VEGF; assay: ELISA and BIAcore
human VEGF [2] = biological target: T2, human VEGF; assay: SPR (BIAcore X100), VEGF on CM5 chip, IgG injected, 1:1 Langmuir
Source text: Meanwhile, to measure the affinity, human VEGF and mouse VEGF were coupled to carboxymethylated dextran biosensor chips (CM5, GE) according to the manufacturer's instructions.
The association and dissociation rates were expressed by the association and dissociation sensorgram, and calculated using a simple 1:1 Langmuir binding model (BIAcore X100 evaluation software, ver. 2.0).

fold affinity over mother clone F (human VEGF [1])	fold affinity over mother clone F (mouse VEGF)	Kd (human VEGF [2])	koff (human VEGF [2])	kon (human VEGF [2])	Binder
≥ 10 times	≥ 10 times	–	–	–	HF2-18 (antibody, V domains shown) VH: EVQLVESGGGLVQPGGSLRLSCAASYWAFRSHGMQWVRQAPGKGLEYVAGISSDGSWFSSAAAVEGRFTISRDDSKNTAYLQMNSLRAEDTAVYYCARDFSTGYGADSIDAWGQGTLVTVSS VL: DIQMTQSPSSLSASVGDRVTITCSGGSIEPLGYGWYQQKPGKAPKTLIYWDDKRPSGVPSRFSGSRSGTDFTLTISSLQPEDFATYYCGAWEYSGGVGIFGQGTKVEIK
≥ 10 times	≥ 10 times	–	–	–	HF2-24 (antibody, V domains shown) VH: EVQLVESGGGLVQPGGSLRLSCAASRFNMRSHGMQWVRQAPGKGLEYVAGISSDGSWVKVAAAVEGRFTISRDDSKNTAYLQMNSLRAEDTAVYYCARDFSTGYGADSIDAWGQGTLVTVSS VL: DIQMTQSPSSLSASVGDRVTITCSGGSQESLGYGWYQQKPGKAPKTLIYWDDKRPSGVPSRFSGSRSGTDFTLTISSLQPEDFATYYCGAWEYSGGVGIFGQGTKVEIK
≥ 10 times	≥ 10 times	–	–	–	HF2-23 (antibody, V domains shown) VH: EVQLVESGGGLVQPGGSLRLSCAASGFRIRSHGMQWVRQAPGKGLEYVAGISSDGSWFSSAAAVEGRFTISRDDSKNTAYLQMNSLRAEDTAVYYCARDFSTGYGADSIDAWGQGTLVTVSS VL: DIQMTQSPSSLSASVGDRVTITCSGGSDLLLGYGWYQQKPGKAPKTLIYWDDKRPSGVPSRFSGSRSGTDFTLTISSLQPEDFATYYCGAWEYSGGVGIFGQGTKVEIK
≥ 10 times	≥ 10 times	–	–	–	HF2-20 (antibody, V domains shown) VH: EVQLVESGGGLVQPGGSLRLSCAASYMEYRSHGMQWVRQAPGKGLEYVAGISSDGSWSRVDAAVEGRFTISRDDSKNTAYLQMNSLRAEDTAVYYCARDFSTGYGADSIDAWGQGTLVTVSS VL: DIQMTQSPSSLSASVGDRVTITCSGGSDSAYGYGWYQQKPGKAPKTLIYWDDKRPSGVPSRFSGSRSGTDFTLTISSLQPEDFATYYCGAWEYSGGVGIFGQGTKVEIK
≥ 10 times	≥ 10 times	–	–	–	HF2-22 (antibody, V domains shown) VH: EVQLVESGGGLVQPGGSLRLSCAASGFRIRSHGMQWVRQAPGKGLEYVAGISSDGSWFRVAAAVEGRFTISRDDSKNTAYLQMNSLRAEDTAVYYCARDFSTGYGADSIDAWGQGTLVTVSS VL: DIQMTQSPSSLSASVGDRVTITCSGGSTAGVGYGWYQQKPGKAPKTLIYWDDKRPSGVPSRFSGSRSGTDFTLTISSLQPEDFATYYCGAWEYSGGVGIFGQGTKVEIK
≥ 10 times	≥ 10 times	–	–	–	HF2-21 (antibody, V domains shown) VH: EVQLVESGGGLVQPGGSLRLSCAASFQYFRSHGMQWVRQAPGKGLEYVAGISSDGSWYRVQAAVEGRFTISRDDSKNTAYLQMNSLRAEDTAVYYCARDFSTGYGADSIDAWGQGTLVTVSS VL: DIQMTQSPSSLSASVGDRVTITCSGGSMEPLGYGWYQQKPGKAPKTLIYWDDKRPSGVPSRFSGSRSGTDFTLTISSLQPEDFATYYCGAWEYSGGVGIFGQGTKVEIK

Continued, binder first:

Binder	fold affinity over mother clone F (human VEGF [1])	fold affinity over mother clone F (mouse VEGF)	Kd (human VEGF [2])	koff (human VEGF [2])	kon (human VEGF [2])
HF2-2 (antibody, V domains shown) VH: EVQLVESGGGLVQPGGSLRLSCAASRFNMRSHGMQWVRQAPGKGLEYVAGISSDGSWERVGAAVEGRFTISRDDSKNTAYLQMNSLRAEDTAVYYCARDFSTGYGADSIDAWGQGTLVTVSS VL: DIQMTQSPSSLSASVGDRVTITCSGGSDSAYGYGWYQQKPGKAPKTLIYWDDKRPSGVPSRFSGSRSGTDFTLTISSLQPEDFATYYCGAWEYSGGVGIFGQGTKVEIK	≥ 10 times	≥ 10 times	< 1 pM	< 1e-06 s⁻¹	1.1e+06 M⁻¹ s⁻¹
HF2-7 (antibody, V domains shown) VH: EVQLVESGGGLVQPGGSLRLSCAASQFWIRSHGMQWVRQAPGKGLEYVAGISSDGSWFRVAAAVEGRFTISRDDSKNTAYLQMNSLRAEDTAVYYCARDFSTGYGADSIDAWGQGTLVTVSS VL: DIQMTQSPSSLSASVGDRVTITCSGGSMEPLGYGWYQQKPGKAPKTLIYWDDKRPSGVPSRFSGSRSGTDFTLTISSLQPEDFATYYCGAWEYSGGVGIFGQGTKVEIK	≥ 10 times	≥ 10 times	16 pM	2.7e-05 s⁻¹	1.6e+06 M⁻¹ s⁻¹
HF2-13 (antibody, V domains shown) VH: EVQLVESGGGLVQPGGSLRLSCAASGFLVRSHGMQWVRQAPGKGLEYVAGISSDGSWQRVNAAVEGRFTISRDDSKNTAYLQMNSLRAEDTAVYYCARDFSTGYGADSIDAWGQGTLVTVSS VL: DIQMTQSPSSLSASVGDRVTITCSGGSDLLLGYGWYQQKPGKAPKTLIYWDDKRPSGVPSRFSGSRSGTDFTLTISSLQPEDFATYYCGAWEYSGGVGIFGQGTKVEIK	≥ 10 times	≥ 10 times	≤ 9 pM	≤ 1e-05 s⁻¹	1.4e+06 M⁻¹ s⁻¹
HF2-17 (antibody, V domains shown) VH: EVQLVESGGGLVQPGGSLRLSCAASGFMIRSHGMQWVRQAPGKGLEYVAGISSDGSWRRHSAAVEGRFTISRDDSKNTAYLQMNSLRAEDTAVYYCARDFSTGYGADSIDAWGQGTLVTVSS VL: DIQMTQSPSSLSASVGDRVTITCSGGSIEPLGYGWYQQKPGKAPKTLIYWDDKRPSGVPSRFSGSRSGTDFTLTISSLQPEDFATYYCGAWEYSGGVGIFGQGTKVEIK	≥ 10 times	≥ 10 times	–	–	–
HF2-10 (antibody, V domains shown) VH: EVQLVESGGGLVQPGGSLRLSCAASFQYFRSHGMQWVRQAPGKGLEYVAGISSDGSWFRVAAAVEGRFTISRDDSKNTAYLQMNSLRAEDTAVYYCARDFSTGYGADSIDAWGQGTLVTVSS VL: DIQMTQSPSSLSASVGDRVTITCSGGSMEPLGYGWYQQKPGKAPKTLIYWDDKRPSGVPSRFSGSRSGTDFTLTISSLQPEDFATYYCGAWEYSGGVGIFGQGTKVEIK	≥ 10 times	≥ 10 times	< 1 pM	< 1e-06 s⁻¹	1.6e+06 M⁻¹ s⁻¹
HF2-12 (antibody, V domains shown) VH: EVQLVESGGGLVQPGGSLRLSCAASYSEVRSHGMQWVRQAPGKGLEYVAGISSDGSWFRVAAAVEGRFTISRDDSKNTAYLQMNSLRAEDTAVYYCARDFSTGYGADSIDAWGQGTLVTVSS VL: DIQMTQSPSSLSASVGDRVTITCSGGSMEPLGYGWYQQKPGKAPKTLIYWDDKRPSGVPSRFSGSRSGTDFTLTISSLQPEDFATYYCGAWEYSGGVGIFGQGTKVEIK	≥ 10 times	≥ 10 times	–	–	–
HF2-14 (antibody, V domains shown) VH: EVQLVESGGGLVQPGGSLRLSCAASHSSIRSHGMQWVRQAPGKGLEYVAGISSDGSWLRQDAAVEGRFTISRDDSKNTAYLQMNSLRAEDTAVYYCARDFSTGYGADSIDAWGQGTLVTVSS VL: DIQMTQSPSSLSASVGDRVTITCSGGSDSAYGYGWYQQKPGKAPKTLIYWDDKRPSGVPSRFSGSRSGTDFTLTISSLQPEDFATYYCGAWEYSGGVGIFGQGTKVEIK	≥ 10 times	≥ 10 times	< 1 pM	< 1e-06 s⁻¹	1.3e+06 M⁻¹ s⁻¹
HF2-6 (antibody, V domains shown) VH: EVQLVESGGGLVQPGGSLRLSCAASRFLLRSHGMQWVRQAPGKGLEYVAGISSDGSWFRVAAAVEGRFTISRDDSKNTAYLQMNSLRAEDTAVYYCARDFSTGYGADSIDAWGQGTLVTVSS VL: DIQMTQSPSSLSASVGDRVTITCSGGSMEPLGYGWYQQKPGKAPKTLIYWDDKRPSGVPSRFSGSRSGTDFTLTISSLQPEDFATYYCGAWEYSGGVGIFGQGTKVEIK	≥ 10 times	≥ 10 times	< 1 pM	< 1e-06 s⁻¹	1.6e+06 M⁻¹ s⁻¹
HF2-16 (antibody, V domains shown) VH: EVQLVESGGGLVQPGGSLRLSCAASGFRIRSHGMQWVRQAPGKGLEYVAGISSDGSWVKVAAAVEGRFTISRDDSKNTAYLQMNSLRAEDTAVYYCARDFSTGYGADSIDAWGQGTLVTVSS VL: DIQMTQSPSSLSASVGDRVTITCSGGSIEPLGYGWYQQKPGKAPKTLIYWDDKRPSGVPSRFSGSRSGTDFTLTISSLQPEDFATYYCGAWEYSGGVGIFGQGTKVEIK	≥ 10 times	≥ 10 times	–	–	–
HF2-15 (antibody, V domains shown) VH: EVQLVESGGGLVQPGGSLRLSCAASGFVVRSHGMQWVRQAPGKGLEYVAGISSDGSWKATAAAVEGRFTISRDDSKNTAYLQMNSLRAEDTAVYYCARDFSTGYGADSIDAWGQGTLVTVSS VL: DIQMTQSPSSLSASVGDRVTITCSGGSQESLGYGWYQQKPGKAPKTLIYWDDKRPSGVPSRFSGSRSGTDFTLTISSLQPEDFATYYCGAWEYSGGVGIFGQGTKVEIK	≥ 10 times	≥ 10 times	–	–	–
HF2-3 (antibody, V domains shown, also called HF-3) VH: EVQLVESGGGLVQPGGSLRLSCAASHFNMRSHGMQWVRQAPGKGLEYVAGISSDGSWFRVAAAVEGRFTISRDDSKNTAYLQMNSLRAEDTAVYYCARDFSTGYGADSIDAWGQGTLVTVSS VL: DIQMTQSPSSLSASVGDRVTITCSGGSDSAYGYGWYQQKPGKAPKTLIYWDDKRPSGAPSRFSGSRSGTDFTLTISSLQPEDFATYYCGAWEYSGGVGIFGQGTKVEIK	≥ 10 times	≥ 10 times	< 1 pM	< 1e-06 s⁻¹	1.3e+06 M⁻¹ s⁻¹

Source: US20160122426A1 (DONG A SOCIO, published 2016)
